Test results reported in patent US6548643.

Columns and labels:
Assay in all cases: cell-based or functional assay
[1] = target: H-2K^d class I molecule on P815 cells (mouse) (UniProt P01902)
[2] = target: T1, H-2D^d class I molecule on P815 cells (mouse) (UniProt P01900)
T1 sequence (MHC heavy, looked up): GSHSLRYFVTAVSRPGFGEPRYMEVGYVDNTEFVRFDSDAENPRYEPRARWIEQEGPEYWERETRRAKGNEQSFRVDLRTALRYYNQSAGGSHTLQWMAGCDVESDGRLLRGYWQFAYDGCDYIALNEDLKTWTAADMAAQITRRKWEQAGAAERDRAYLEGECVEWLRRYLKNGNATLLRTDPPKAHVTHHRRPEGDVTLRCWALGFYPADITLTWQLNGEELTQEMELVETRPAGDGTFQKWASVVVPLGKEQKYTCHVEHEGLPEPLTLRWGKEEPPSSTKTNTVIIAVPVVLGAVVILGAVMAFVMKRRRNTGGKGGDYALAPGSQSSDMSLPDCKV

[3] = target: H-2K^b class I molecule on RMA cells (mouse) (UniProt P01901)
Sequence of UniProt P01901 (P01901 22-369): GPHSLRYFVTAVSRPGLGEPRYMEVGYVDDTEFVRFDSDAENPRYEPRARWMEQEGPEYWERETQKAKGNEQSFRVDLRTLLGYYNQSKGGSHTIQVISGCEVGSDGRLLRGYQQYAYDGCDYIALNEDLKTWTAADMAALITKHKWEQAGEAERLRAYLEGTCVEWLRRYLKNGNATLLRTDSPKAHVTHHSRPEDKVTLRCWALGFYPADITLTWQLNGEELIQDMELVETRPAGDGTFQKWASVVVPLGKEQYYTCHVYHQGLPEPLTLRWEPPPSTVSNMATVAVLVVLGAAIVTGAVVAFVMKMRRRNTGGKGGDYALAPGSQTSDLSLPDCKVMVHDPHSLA

[4] = target: H-2L^d class I molecule on P815 cells (mouse) (UniProt P01897)
Sequence of UniProt P01897 (P01897 25-362): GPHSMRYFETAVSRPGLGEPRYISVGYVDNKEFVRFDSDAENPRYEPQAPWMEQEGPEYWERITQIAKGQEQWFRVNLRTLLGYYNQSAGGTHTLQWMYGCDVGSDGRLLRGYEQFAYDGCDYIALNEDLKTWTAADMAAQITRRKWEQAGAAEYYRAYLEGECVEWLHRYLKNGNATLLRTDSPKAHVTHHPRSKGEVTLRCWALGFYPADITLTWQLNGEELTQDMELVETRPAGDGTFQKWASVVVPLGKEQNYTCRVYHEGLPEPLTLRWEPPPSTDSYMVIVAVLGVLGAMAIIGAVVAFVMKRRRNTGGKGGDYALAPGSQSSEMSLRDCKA

[5] = target: H-2D^b class I molecule on RMA cells (mouse) (UniProt P01899)
Sequence of UniProt P01899 (P01899 25-362): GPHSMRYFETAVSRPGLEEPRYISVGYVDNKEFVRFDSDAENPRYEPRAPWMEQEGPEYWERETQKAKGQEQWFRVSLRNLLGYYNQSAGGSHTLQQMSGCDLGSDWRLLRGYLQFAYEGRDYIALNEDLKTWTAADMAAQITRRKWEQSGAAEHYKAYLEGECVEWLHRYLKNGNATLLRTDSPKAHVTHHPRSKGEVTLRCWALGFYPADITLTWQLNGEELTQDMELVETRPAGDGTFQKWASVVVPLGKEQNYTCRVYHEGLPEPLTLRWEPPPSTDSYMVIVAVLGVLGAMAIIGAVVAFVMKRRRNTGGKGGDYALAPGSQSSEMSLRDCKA

Sequence of UniProt P01902 (P01902 22-368): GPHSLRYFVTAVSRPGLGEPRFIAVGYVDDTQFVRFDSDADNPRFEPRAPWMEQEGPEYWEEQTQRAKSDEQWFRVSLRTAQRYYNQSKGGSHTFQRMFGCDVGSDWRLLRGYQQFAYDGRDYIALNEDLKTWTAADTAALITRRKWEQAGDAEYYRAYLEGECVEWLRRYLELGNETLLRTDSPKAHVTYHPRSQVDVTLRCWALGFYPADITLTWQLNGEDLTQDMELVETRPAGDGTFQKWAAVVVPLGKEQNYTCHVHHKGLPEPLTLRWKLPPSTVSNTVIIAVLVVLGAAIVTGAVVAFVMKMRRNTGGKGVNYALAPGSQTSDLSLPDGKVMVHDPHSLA

How did the % lysis of peptide-pulsed P815 target cells by mannan-HMFG CTL, E:T 50:1 [1] turn out when YYQELQRDI was run?
The % lysis of peptide-pulsed P815 target cells by mannan-HMFG CTL, E:T 50:1 was 50%.

For YGQLDIFPA, which % lysis of peptide-pulsed P815 target cells by CTL of mannan-HMFG immunised BALB/c mice (51Cr release) [2] is on record?
Its % lysis of peptide-pulsed P815 target cells by CTL of mannan-HMFG immunised BALB/c mice (51Cr release) is 0%.

For SAPDTRPAP, which % lysis of peptide-pulsed P815 target cells by mannan-HMFG CTL, E:T 50:1 [2] is on record?
Its % lysis of peptide-pulsed P815 target cells by mannan-HMFG CTL, E:T 50:1 is 62%.

And the % lysis of peptide-pulsed RMA target cells by mannan-HMFG CTL [3]?
The % lysis of peptide-pulsed RMA target cells by mannan-HMFG CTL was 80%.

With VPSSTEKNA as the binder, how does the % lysis of peptide-pulsed P815 target cells by mannan-HMFG CTL, E:T 50:1 [4] read?
The % lysis of peptide-pulsed P815 target cells by mannan-HMFG CTL, E:T 50:1 was 78%.

APGSTAPPA was tested. Which % lysis of peptide-pulsed RMA target cells by mannan-HMFG CTL [5] did it give?
Its % lysis of peptide-pulsed RMA target cells by mannan-HMFG CTL is 70%.

For SAPDNRPAL, which % lysis of peptide-pulsed RMA target cells by mannan-HMFG CTL, E:T 50:1 [5] is on record?
Its % lysis of peptide-pulsed RMA target cells by mannan-HMFG CTL, E:T 50:1 is 50%.

Which % lysis of peptide-pulsed RMA target cells by mannan-HMFG CTL, E:T 50:1 [5] does the source give for CRRKNYGQL here?
The % lysis of peptide-pulsed RMA target cells by mannan-HMFG CTL, E:T 50:1 was 20%.

What about the % lysis of peptide-pulsed RMA target cells by mannan-HMFG CTL, E:T 100:1 [5] of the same binder?
Its % lysis of peptide-pulsed RMA target cells by mannan-HMFG CTL, E:T 100:1 is 42%.

And the % lysis of peptide-pulsed RMA target cells by mannan-HMFG CTL, E:T 50:1 [3]?
Its % lysis of peptide-pulsed RMA target cells by mannan-HMFG CTL, E:T 50:1 is 20%.

What about the % lysis of peptide-pulsed RMA target cells by mannan-HMFG CTL, E:T 100:1 [3] of the same binder?
The % lysis of peptide-pulsed RMA target cells by mannan-HMFG CTL, E:T 100:1 was 42%.

Which % lysis of peptide-pulsed P815 target cells by CTL of mannan-HMFG immunised BALB/c mice (51Cr release) [4] does the source give for KNYGQLDIF here?
Its % lysis of peptide-pulsed P815 target cells by CTL of mannan-HMFG immunised BALB/c mice (51Cr release) is 0%.

How did the % lysis of peptide-pulsed P815 target cells by mannan-HMFG CTL, E:T 50:1 [2] turn out when SVPSSTEKN was run?
The % lysis of peptide-pulsed P815 target cells by mannan-HMFG CTL, E:T 50:1 was 0%.

Which results are given for AVSMTSSVL?
% lysis of peptide-pulsed RMA target cells by mannan-HMFG CTL, E:T 50:1 [5]: 18%; % lysis of peptide-pulsed RMA target cells by mannan-HMFG CTL, E:T 100:1 [5]: 40%; % lysis of peptide-pulsed P815 target cells by mannan-HMFG CTL, E:T 50:1 [1]: 77%; % lysis of peptide-pulsed RMA target cells by mannan-HMFG CTL, E:T 50:1 [3]: 18%; % lysis of peptide-pulsed RMA target cells by mannan-HMFG CTL, E:T 100:1 [3]: 40%

APDTRPAPG was tested. Which % lysis of peptide-pulsed P815 target cells by mannan-HMFG CTL, E:T 50:1 [4] did it give?
Its % lysis of peptide-pulsed P815 target cells by mannan-HMFG CTL, E:T 50:1 is 50%.

NYGQLDIFP was tested. Which % lysis of peptide-pulsed P815 target cells by CTL of mannan-HMFG immunised BALB/c mice (51Cr release) [1] did it give?
Its % lysis of peptide-pulsed P815 target cells by CTL of mannan-HMFG immunised BALB/c mice (51Cr release) is 0%.
